Test [1] deals with asialotransferrin (human) (UniProt P02787). Briefly: qualitative ELLA, lectin 2 µg/mL.
Test [2] concerns the target Gal-α1,3-Gal-BSA glycoconjugate (UniProt P02769). Briefly: ELLA lectin dose response.

Data on three substances can be found in patent US20140106371A1.

Sequence of asialotransferrin (human) (P02787 20-698 limits assumed): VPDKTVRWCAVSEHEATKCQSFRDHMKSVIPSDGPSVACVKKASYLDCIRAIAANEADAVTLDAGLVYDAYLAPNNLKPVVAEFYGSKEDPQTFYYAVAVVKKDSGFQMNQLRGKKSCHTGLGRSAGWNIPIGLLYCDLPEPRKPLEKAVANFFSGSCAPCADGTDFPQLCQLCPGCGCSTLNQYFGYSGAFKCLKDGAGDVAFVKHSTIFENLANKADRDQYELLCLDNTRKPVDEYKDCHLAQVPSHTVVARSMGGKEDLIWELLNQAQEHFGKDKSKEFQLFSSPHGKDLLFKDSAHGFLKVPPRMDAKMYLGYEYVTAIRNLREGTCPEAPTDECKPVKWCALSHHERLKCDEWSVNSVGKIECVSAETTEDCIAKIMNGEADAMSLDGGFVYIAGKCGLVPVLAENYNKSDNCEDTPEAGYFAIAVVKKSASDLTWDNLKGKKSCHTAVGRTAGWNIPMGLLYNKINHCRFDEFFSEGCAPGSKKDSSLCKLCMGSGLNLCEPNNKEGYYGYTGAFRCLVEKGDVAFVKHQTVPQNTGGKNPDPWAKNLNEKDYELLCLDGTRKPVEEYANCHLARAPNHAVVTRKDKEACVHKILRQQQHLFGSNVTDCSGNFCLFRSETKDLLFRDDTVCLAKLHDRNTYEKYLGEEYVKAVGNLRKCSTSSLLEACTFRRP
Sequence of Gal-α1,3-Gal-BSA glycoconjugate (P02769 25-607 limits assumed): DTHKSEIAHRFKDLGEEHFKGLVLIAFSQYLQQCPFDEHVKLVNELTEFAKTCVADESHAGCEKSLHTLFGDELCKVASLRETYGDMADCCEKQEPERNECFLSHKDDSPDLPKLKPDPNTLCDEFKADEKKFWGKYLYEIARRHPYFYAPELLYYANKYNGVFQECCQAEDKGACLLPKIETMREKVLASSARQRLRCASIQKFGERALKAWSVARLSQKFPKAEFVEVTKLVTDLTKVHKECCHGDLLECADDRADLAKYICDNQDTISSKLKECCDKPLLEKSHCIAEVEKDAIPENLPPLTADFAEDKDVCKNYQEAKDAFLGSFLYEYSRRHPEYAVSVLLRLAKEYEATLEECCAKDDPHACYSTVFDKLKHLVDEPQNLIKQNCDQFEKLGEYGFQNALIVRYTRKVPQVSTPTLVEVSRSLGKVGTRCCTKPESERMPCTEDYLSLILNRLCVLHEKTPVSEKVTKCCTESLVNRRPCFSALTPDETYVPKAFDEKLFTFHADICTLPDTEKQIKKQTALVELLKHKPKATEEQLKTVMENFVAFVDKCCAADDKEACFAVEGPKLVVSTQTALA

Turning to “H50N (rPA-ILNm protein) (from UniProt Q05097 1-122)”, the ELLA signal relative to rPA-ILNmE6 in test [1] stood at 0.5 fold. Take H50N:Q53G (from UniProt Q05097 1-122): the ELLA signal relative to rPA-ILNmE6 in test [1] is < 0.5 fold. With “rPA-ILN (recombinant wild type PA-IL with an N-terminal RGS-6HIS affinity tag) (from UniProt Q05097 1-122)”, the lectin concentration at which the ELLA signal reached saturation in test [2] was > 1.25 µg/mL.
